The results in this text go back to the supplement of paper PMC10567573.

Sequences and labels used below:
B1: ZNF207 (parent)
chain: FQPQPVQPQQGYIPPMAQPGLPPV
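Also: lentivirally expressed fusions sorted by FACS into six bins by GFP to DsRed ratio, PSI derived from sequencing read proportions per bin multiplied by bin number.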

Variants of B1 are the subject of this data set. Put plainly: protein stability index of a GFP-peptide fusion (GPS, HEK-293T) (PSI 1-6); higher = more stable. The settings on record: c terminus: a fixed tail appended.
In the case of FQPQPVQPQQGWIPPMAQPGLPPV [Y12W], the protein stability index stood at 2.6.

As for FQPQPVQPQQGIIPPMAQPGLPPV [Y12I], the protein stability index was 3.29.

Take FQPQPVQPQQGLIPPMAQPGLPPV [Y12L]: the protein stability index came to 3.81.

On to FQPQPVQPQQGPIPPMAQPGLPPV [Y12P], for which the protein stability index was 3.6.

Consider FQPQPVQPQQGSIPPMAQPGLPPV [Y12S], for which the protein stability index came to 3.81.

With FQPQPVQPQQGRIPPMAQPGLPPV [Y12R], the protein stability index is 3.66.

As to FQPQPVQPQQGEIPPMAQPGLPPV [Y12E], the protein stability index stood at 3.77.

Take FQPQPVQPQQGCIPPMAQPGLPPV [Y12C]: the protein stability index turned out to be 3.55.

On to FQPQPVQPQQGAIPPMAQPGLPPV [Y12A], for which the protein stability index was 3.75.

Take FQPQPVQPQQGFIPPMAQPGLPPV [Y12F]: the protein stability index was found to be 2.81.

Take FQPQPVQPQQGGIPPMAQPGLPPV [Y12G]: the protein stability index is 3.53.

For the variant FQPQPVQPQQGVIPPMAQPGLPPV [Y12V], the protein stability index came out at 3.86.

On to FQPQPVQPQQGHIPPMAQPGLPPV [Y12H], for which the protein stability index stood at 3.54.

Turning to FQPQPVQPQQGKIPPMAQPGLPPV [Y12K], the protein stability index was determined as 3.7.

On to FQPQPVQPQQGTIPPMAQPGLPPV [Y12T], for which the protein stability index amounted to 3.69.

Take FQPQPVQPQQGQIPPMAQPGLPPV [Y12Q]: the protein stability index turned out to be 4.03.

Regarding FQPQPVQPQQGNIPPMAQPGLPPV [Y12N], the protein stability index is 3.77.

As for FQPQPVQPQQGMIPPMAQPGLPPV [Y12M], the protein stability index worked out at 3.72.

Regarding FQTQPVQPQQGYIPPMAQPGLPPV [P3T], the protein stability index was determined as 3.95.

For the variant FQVQPVQPQQGYIPPMAQPGLPPV [P3V], the protein stability index came out at 3.52.

With FQMQPVQPQQGYIPPMAQPGLPPV [P3M], the protein stability index is 3.38.

With FQNQPVQPQQGYIPPMAQPGLPPV [P3N], the protein stability index stood at 3.55.

Regarding FQRQPVQPQQGYIPPMAQPGLPPV [P3R], the protein stability index was determined as 3.25.

Regarding FQIQPVQPQQGYIPPMAQPGLPPV [P3I], the protein stability index turned out to be 2.67.

With FQAQPVQPQQGYIPPMAQPGLPPV [P3A], the protein stability index was determined as 3.48.

Turning to FQQQPVQPQQGYIPPMAQPGLPPV [P3Q], the protein stability index stood at 3.31.

In the case of FQYQPVQPQQGYIPPMAQPGLPPV [P3Y], the protein stability index stood at 3.13.

For the variant FQHQPVQPQQGYIPPMAQPGLPPV [P3H], the protein stability index is 3.8.

As for FQFQPVQPQQGYIPPMAQPGLPPV [P3F], the protein stability index is 2.49.

FQLQPVQPQQGYIPPMAQPGLPPV [P3L]: the protein stability index was found to be 3.2.

In the case of FQSQPVQPQQGYIPPMAQPGLPPV [P3S], the protein stability index was determined as 3.73.

Take FQDQPVQPQQGYIPPMAQPGLPPV [P3D]: the protein stability index came to 3.62.

With FQCQPVQPQQGYIPPMAQPGLPPV [P3C], the protein stability index was determined as 3.47.

As to FQEQPVQPQQGYIPPMAQPGLPPV [P3E], the protein stability index was found to be 3.94.

In the case of FQKQPVQPQQGYIPPMAQPGLPPV [P3K], the protein stability index is 3.04.

With FQGQPVQPQQGYIPPMAQPGLPPV [P3G], the protein stability index is 3.8.

For the variant FQWQPVQPQQGYIPPMAQPGLPPV [P3W], the protein stability index stood at 2.26.

Take FQPQPVQPQRGYIPPMAQPGLPPV [Q10R]: the protein stability index came to 2.79.

With FQPQPVQPQAGYIPPMAQPGLPPV [Q10A], the protein stability index was determined as 2.84.

Regarding FQPQPVQPQDGYIPPMAQPGLPPV [Q10D], the protein stability index is 3.54.

For the variant FQPQPVQPQKGYIPPMAQPGLPPV [Q10K], the protein stability index was determined as 2.98.

Take FQPQPVQPQLGYIPPMAQPGLPPV [Q10L]: the protein stability index worked out at 2.16.

As for FQPQPVQPQEGYIPPMAQPGLPPV [Q10E], the protein stability index came out at 3.1.

Consider FQPQPVQPQMGYIPPMAQPGLPPV [Q10M], for which the protein stability index worked out at 2.81.

FQPQPVQPQNGYIPPMAQPGLPPV [Q10N]: the protein stability index turned out to be 3.28.

With FQPQPVQPQPGYIPPMAQPGLPPV [Q10P], the protein stability index worked out at 3.07.

Turning to FQPQPVQPQVGYIPPMAQPGLPPV [Q10V], the protein stability index turned out to be 2.04.

Regarding FQPQPVQPQTGYIPPMAQPGLPPV [Q10T], the protein stability index was found to be 3.34.

For FQPQPVQPQGGYIPPMAQPGLPPV [Q10G], the protein stability index stood at 3.39.

For FQPQPVQPQYGYIPPMAQPGLPPV [Q10Y], the protein stability index amounted to 2.64.

On to FQPQPVQPQWGYIPPMAQPGLPPV [Q10W], for which the protein stability index worked out at 1.95.

Consider FQPQPVQPQIGYIPPMAQPGLPPV [Q10I], for which the protein stability index was determined as 2.12.

As for FQPQPVQPQFGYIPPMAQPGLPPV [Q10F], the protein stability index came out at 2.31.

Regarding FQPQPVQPQHGYIPPMAQPGLPPV [Q10H], the protein stability index amounted to 2.62.

As to FQPQPVQPQSGYIPPMAQPGLPPV [Q10S], the protein stability index stood at 2.86.

Consider FQPQPVQPQCGYIPPMAQPGLPPV [Q10C], for which the protein stability index is 2.5.

In the case of FQPLPVQPQQGYIPPMAQPGLPPV [Q4L], the protein stability index was 2.88.

For FQPFPVQPQQGYIPPMAQPGLPPV [Q4F], the protein stability index was determined as 2.42.

Consider FQPDPVQPQQGYIPPMAQPGLPPV [Q4D], for which the protein stability index came to 3.01.

As to FQPNPVQPQQGYIPPMAQPGLPPV [Q4N], the protein stability index was determined as 3.43.

With FQPMPVQPQQGYIPPMAQPGLPPV [Q4M], the protein stability index worked out at 2.72.

Consider FQPGPVQPQQGYIPPMAQPGLPPV [Q4G], for which the protein stability index was 2.71.

Take FQPIPVQPQQGYIPPMAQPGLPPV [Q4I]: the protein stability index stood at 2.31.

On to FQPSPVQPQQGYIPPMAQPGLPPV [Q4S], for which the protein stability index stood at 3.21.

Consider FQPYPVQPQQGYIPPMAQPGLPPV [Q4Y], for which the protein stability index was 1.83.

Regarding FQPCPVQPQQGYIPPMAQPGLPPV [Q4C], the protein stability index stood at 3.01.

For FQPRPVQPQQGYIPPMAQPGLPPV [Q4R], the protein stability index came to 2.78.

As for FQPEPVQPQQGYIPPMAQPGLPPV [Q4E], the protein stability index turned out to be 3.58.

Consider FQPWPVQPQQGYIPPMAQPGLPPV [Q4W], for which the protein stability index is 1.81.

As to FQPKPVQPQQGYIPPMAQPGLPPV [Q4K], the protein stability index amounted to 2.92.

For FQPVPVQPQQGYIPPMAQPGLPPV [Q4V], the protein stability index came to 3.12.

For the variant FQPQPVQPQQGYDPPMAQPGLPPV [I13D], the protein stability index is 3.57.

In the case of FQPQPVQPQQGYEPPMAQPGLPPV [I13E], the protein stability index came to 3.71.

Turning to FQPQPVQPQQGYAPPMAQPGLPPV [I13A], the protein stability index came to 3.8.

FQPQPVQPQQGYCPPMAQPGLPPV [I13C]: the protein stability index was 3.33.

Take FQPQHVQPQQGYIPPMAQPGLPPV [P5H]: the protein stability index was determined as 3.15.

With FQPQTVQPQQGYIPPMAQPGLPPV [P5T], the protein stability index stood at 2.62.

In the case of FQPQVVQPQQGYIPPMAQPGLPPV [P5V], the protein stability index turned out to be 2.57.

As to FQPQEVQPQQGYIPPMAQPGLPPV [P5E], the protein stability index worked out at 3.62.

With FQPQIVQPQQGYIPPMAQPGLPPV [P5I], the protein stability index was found to be 2.63.

For FQPQKVQPQQGYIPPMAQPGLPPV [P5K], the protein stability index worked out at 3.17.

As for FQPQMVQPQQGYIPPMAQPGLPPV [P5M], the protein stability index amounted to 2.61.

FQPQLVQPQQGYIPPMAQPGLPPV [P5L]: the protein stability index was 2.88.

On to FQPQYVQPQQGYIPPMAQPGLPPV [P5Y], for which the protein stability index is 2.59.

As for FQPQNVQPQQGYIPPMAQPGLPPV [P5N], the protein stability index is 2.8.

For FQPQRVQPQQGYIPPMAQPGLPPV [P5R], the protein stability index came to 2.58.

FQPQDVQPQQGYIPPMAQPGLPPV [P5D]: the protein stability index turned out to be 3.18.

Consider FQPQSVQPQQGYIPPMAQPGLPPV [P5S], for which the protein stability index is 3.18.

In the case of FQPQWVQPQQGYIPPMAQPGLPPV [P5W], the protein stability index stood at 1.62.

Consider FQPQFVQPQQGYIPPMAQPGLPPV [P5F], for which the protein stability index amounted to 2.33.

For the variant FQPQCVQPQQGYIPPMAQPGLPPV [P5C], the protein stability index stood at 2.29.

Take FQPQGVQPQQGYIPPMAQPGLPPV [P5G]: the protein stability index amounted to 3.45.

With FQPQAVQPQQGYIPPMAQPGLPPV [P5A], the protein stability index is 3.22.

As to FQPQQVQPQQGYIPPMAQPGLPPV [P5Q], the protein stability index is 2.99.
